Assay: soluble on expression in E. coli; label from the status in PepcDB or PDB records

Sequence | soluble on expression in E. coli
MIRSSIDLMLKTGAAALAKNFENRDPIAGQREILARLVVAAAVTRFGRDHGFAELAGEPFDRLYAEFRRRVPIRTYADFWRDYFSAWQSDANGSQRLLLEDVTWPGRIPFFCETSGTTAPTKYIPFSREMFAANKRAAIDLTACYLHRTPRSRLFQGKLLYMAGNTSLTDLGNGVQSGDMSGITLRHRPFYLRPFVAPGMAVSALPWEEKVVELAGLLLSDRSIRGISGVPPWIILLLQRVEEMGHRPIAELLPNLELIIHGGTSMKPYRREFDGLFPRRRPHFLEVLPSSEAFMAFQLPGEDRMRLVPHYGAFFEFIPIEDLDEGGTPAADAPTVPLEAVETGRRYAVILTTCAGLWRYHIGDTLRFTALSPHFIEFTGRDRFLDRFEEKVTQGEVEEAVARLNQLDGIEVREFMVGPDIGERRHLWVLAVGEMNERSGDVLGRHLDATLRSLNADYATFRSQGRIAGPRVVTVSGDVIYRWSKEVRGKLGGQSKIPHVDPTVEGEMVASLAAFARRFQACWIADSFQGFGPTGRVKVQNSSNFTGSRSLPERTRPSSSVVLEHHHHHH | not soluble
MGSDKIHHHHHHMKSDLELKHDVDQELLWDPALDARNVTATVLNRIVTLEGSVNSCAQKLALQKAVQRVAGSRAVVLDLVVRAPSPLRHTDEDLAAAIVSALQWQEGLPEDAIRVVVEHGCVTLTGEVDYGFQRQMAEVLVSRMRGVVGVANQIEVRIDPVAADVSKHIAEALQRRSRRESGGISVDVHDGVVRLTGVADSLLESVWPAASPGAPRACGGWSTSWSSHESRRLALHAFPSCLNQL | not soluble
MYKNILLGVDTQLKNEKALKEVSKLAGEGTVVTVLNAISEQDAQASIKAGVHLNKLTEERSKRLEKTRKALEDYGIDYDQIIVRGNAKEELLKHANSGKYEIVVLSNRKAEDKKKFVLGSVSHKVAKRATIPVLIVK | not soluble
MEKGSVMSLFIYMSQSMFNFDALTPDFMWYALESIGIRAESGFLPLNSYENRVYQFTDEERRRYVVKFYRPERWSNEQIQEEHDFTLELIDSEIPVAPPVRINGNTLHHYQGYGFALFESVGGRQFEVDNLEQLEGVGRFLGRIHKVGSRQAFQHRPTIGLQEYLYQPREILQNANMIPMHLENSFFNDLDMLIKAIENHWQGSFATIRLHGDCHPGNILWRDGPMFVDLDDSRNGPAVQDLWMLLNGERQDKLMQLDIILEAYQEFCDFNAAELKLIEPLRGLRMVHYMAWLAKRWHDPAFPLAFPWFNEPKYWEGQVLAFKEQIASLEEAPLSLMPQWLEHHHHHH | not soluble
MAHHHHHHMNGEVSVERKFSPSQPGYGSEGCRQSMGTTTNNGARRFSATELGRTVGMPYSFDTMRYLKDVMRRREDIHTMRVMPKTHLLAQLVLLEQSGREMLIHQERFCRQQIAHKRDDERSKREEQRLQQKNRDRLEEMKRKQVEELAALKEGVTSFQRQIDAEVKEKLRIVCMLQPRMNVAAAVLAEVKNEASPFLLLPELMEEEKRVAKALKADSRYSKSSADSGAVPHWMRTCVAGSFNVAAILQDAPYRATVDDAVKVTNAFLRKVVVVRDVNDRSVVGWVHVRAGSDPATLATELVRLPAPEELPDQGNIGVVWPKEDFLELSRRAKANNNVETQQLLQSVLGISSASLHCVGLTTHEFSKKEVDTIGSLASV | not soluble
AIAQNDAGEFVDLYVPRKCSASNRIIGAKDHASIQMNVAEVSWEPGRREGCDICAGKAGCPIVEEPLG | soluble
SNAMNASAVETIYESTEDKAALTSVVDLVKLSDQYRQSAILHYAVADKLFDLTQTGRTPAEVAASFGMVEGKAAILLHALAALGLLTKEGDAFRNTALTERYLTTTSADYIGPIVEHQYLQWDNWPRLGEILRSEKPLAFQQESRFAHDTRARDAFNDAMVRLSQPMVDVVSELGVFARARTVIDLAGGHGTYLAQVLRRHPQLTGQIWDLPTTRDAARKTIHAHDLGGRVEFFEKNLLDARNFEGGAADVVMLNDCLHYFDAREAREVIGHAAGLVKPGGALLILTMTMNDDRVTPALSADFSLHMMVNTNHGELHPTPWIAGVVRDAGLAVGERSIGRYTLLIGQRSSGE | soluble
QRWSLPSLDPFGDRETAIETVGETVETSIDAVDTDSLAIAFSGGVDSALLAARLDAPLYVAGFPDSHDIEAARSAAELLGTEVRVVELTHDAIERAVPEIARATARTNAMDVQIALPLYLVAERVAGDGFDRLALGQGADELFGGYAKVAKAPEDPRVEADTVRGAQREVIASLPDQLERDVLALRAAGVEPVTPLLHDRVIGAALRLDGDLLVDGETRKVALRAAARESLPDEIADRDKKAAQYGSLAARELDRLARQAGYKRRMDDHVTQYVESLVE | not soluble
MKGLYFQQSSTDEEITFVFQEKEDLPVTEDNFVKLQVKACALSQINTKLLAEMKMKKDLFPVGREIAGIVLDVGSKVSFFQPDDEVVGILPLDSEDPGLCEVVRVHEHYLVHKPEKVTWTEAAGSIRDGVRAYTALHYLSHLSPGKSVLIMDGASAFGTIAIQLAHHRGAKVISTACSLEDKQCLERFRPPIARVIDVSNGKVHVAESCLEETGGLGVDIVLDAGVRLYSKDDEPAVKLQLLPHKHDIITLLGVGGHWVTTEENLQLDPPDSHCLFLKGATLAFLNDEVWNLSNVQQGKYLCILKDVMEKLSTGVFRPQLDEPIPLYEAKVSMEAVQKNQGRKKQVVQF | soluble
MGSDKIHHHHHHMKASDFREWVGKITQLSRGQKEQTKHKLGGMVPRIEVAKWLESSFEPICPVCQSNHFYRWGYQAGLQRFYCRMCKHTFTAISGTPLARLRHKDQWLNYSAALIEGLTVRASARQCRIDKNTSFRWRHRFLTLPAAAKANHLEGIVEADETFFPVSCKGQRQLDRPPRKRGKQIHMRGTGKDQVPVLIVRDRSGATADFMLDAIDRKAIEPPLRTVLEKDVIFCSDGAAVYRSVARSLGITHRPVNLAAGVRVIAGVYHIQNVNAYHSRLKQWMKRFHGVATRYLENYLGWFRWLDQQENLSSPIVPLQAALGRENQFQLLTNT | not soluble
MGGPEKNSTVPLPNKKRKKKTNKKKPTAPNTPTSPQAGEKNANLKNGTVTTNGSNHVERLAGRAVHSLSAIDYSGITNDVEAGGSFSLTDVFPTVIFMFVVLFCRWLNGFSQHRERLYKFEDEAVQRRRRFRVHSEESEELNDHESYSETDICTQLLASSADVTCHINVDLVNQNRFYFFVKQRNKKENSTNEEEEISSQEINTSTQNEETEVNLVFASAEDNGGVASNFDISDALMVTSNISEVSKLPETLCEEGETVQQKSVVNENDHSNEDDEQSLQSQDGSRCSDEDMNSCVSASDEEDVESQDDSFHVNDATEESIDSVSSIESQEAEESATEDLASCHSNDDKNEKDVLVDEDTSKYDNLPVEMRSAKEGEESEGTIDSSVSSSTSSSSTGDDGDDSATSYDSEDIEIQMFEYDLGTACASASISIPRPSIIPRNNKKTEVNANEERLDDLSVSPGRSDSPGGGGGGHSDSFQDPMDPGEQLGSDDEEQEDPRDYKRGGYHPVNIGDVFNARYHVIRKLGWGHFSTVWLAWDTQDKRFVAMKIVKSAEHYTEAALDEIKLLLSVRSADPNDIGCHKVVQLLDEFTVTGINGQHVAMVFEVLGCNLLKLIIRSNYRGLHLEQVRKICRQVLEALGYMHEKCGIIHTDIKPENVLITMSREEIKIMAQHAVVARKMNMKMSGSAVSTAPDHLVKMAQENMTKNKKKKMKKKAKKQREKLEAELAGLEGLKMDANGLQEAYNNAPELENFNASQVEDVTMEDTVNENGNRNKVEIRSPDRFDRTTLTPFSDPESKFGDLASPSAEYLSSPMSQLPPGGILPAPPVGPNIGDPYCDIDVKIADLGNACWVNHHYTDDIQTRQYRALEVLIGSGYGPPADIWSTACMAFELATGDYLFEPHQGDNYSRDEDHLAHISELLGAIPPSIYKKGKHWREFFHKNGHLLHIHQLKPWSLYEVLRQKYEWSHEDAQQFESFLRPMLDFDQEKRSTAKIALKHPFLLPFGGRAPKSDCPPELLSKMFPDGLIPEPFDGNEHQEVYRDENDSRSASERSANSRSAGGSDDDDEEEFNMNRPGPSGHFPIFCSRVFTFMF | soluble
MSLKEVDLTQEQMKDLNLTYDWYRSYDNAKLNEFLNFVLLNNSDINIARKTLLSALARADLIDYDLYPTLSGNLGFGADKDLNSGKQSKNFNNSLNLSYELDIYGKLRDSASASEFSAKASAYDLENLKISMINTALNDVFELAYFNDVDKLLRAYLSNLEQMKELYNYKYKLGKIEELDLLNIEQSLLRAKQNLLSNDQNRNLLIKNLQDLLARQEGFAYIEYFKTLSLNDFKTLSPDFNIPLKALAYRADVRSKLNSLKSAFKDYSSMQKSILPSISLGGALSGSDKKIDDSFKFEILSGNVKISLPFLDYGRVKQNIKISQFAYEQLLISYEQVLQSAMNEFALNYKDYQSDTLLLQNLQNINIKQELITKAYYEKYILGKSELKDYLDANNTLNSTQQEFLRARFNLLKTINSYYQITALSFNNENLEFPKEGHHHHHH | soluble
MSGVRMIDRWEEDNKMFLRLYIKERVLPTIYGSILGDLVGVPVEFKKRGSFFVEDIIGYGTYNQPAGTWSDDTSLTLCLIENIVEEGTIKSLMEKFVNYQDKGYMTPYGQMFDIGGATAQAIGRFKAGCLPQNCGGQSEYDNGNGAIMRISPLAFLFDNEFDFVKKAEVIKQYTEITHAHPRAIVGSIIYIELLLRLYHNNTLEKSIKDILDLFEENFPKNHIYMDEFKYYKRIFDSNFFNVPEEQILSDGYVVHTLEAAIWCVGNTKNFKEAILKAVNLGGDTDTVGVITGAIAGMYYKMDEIPQDWLNKIAKKQDIDELINKFYKYCADKAVIEKYGSL | not soluble
GFRKMAFPSGKVEGCMVQVTCGTTTLNGLWLDDTVYCPRHVICTAEDMLNPNYEDLLIRKSNHSFLVQAGNVQLRVIGHSMQNCLLRLKVDTSNPKTPKYKFVRIQPGQTFSVLACYNGSPSGVYQCAMRPNHTIKGSFLNGSCGSVGFNIDYDCVSFCYMHHMELPTGVHAGTDLEGKFYGPFVDRQTAQAAGTDTTITLNVLAWLYAAVINGDRWFLNRFTTTLNDFNLVAMKYNYEPLTQDHVDILGPLSAQTGIAVLDMCAALKELLQNGMNGRTILGSTILEDEFTPFDVVRQCSGVTHHHHHH | soluble
MQRSLFSKFRQILTYKCDWYGKELILADKTYPSTQRCAKCGYVKTGDEKITLQGNQKHGTKHNEYICYKCDYSNDRDENAVLNLLALARLEHHHHHH | not soluble
MEVDGASDDEQEQIIRKLVKKPEFLSDEEDDSVEDQVVWECDVVVCNSTPNTEMFSVSYPSSKRDAWDAKRFPIARYKKNVRLLEMRFMTDTQLGSYDKKKAELMYMDGDVPKKGHGIDALRANDEIYEGRAFIHDHPIVNAIGFFKNGEFFIHPLTGAFEMHRSIQGLNKKKKSDGKSGKSDEDSSGEEEDVKPSSAAVRVKFSRPETERQKKRREASALHREKKIASDMWIPMKVHLKDGDPVAEKIDGISQNGLLLDDPEASRMSIRALVNRAIICGVKEELVIESGKEHMLSKQRIDDLPDPNLQLKAHMVKSHVMKTSEMRRLIDPSAMSTDKMIAKLKECASLVQGVWVLDSNLMFKNLAPAHSNTAGKTDLYRAELWRNARDLALCLIDGGHRVTRLTLMTCFKLSERDSDEILSTFGVKCEATRSWRLRVERDAQFLEDPAMKKHVVEQKAKWVQKFNELEKSLQESPAKSPKKK | not soluble
MQRNSENSKNGRRVSSSSYMSAAAAAGAAAALRLSVDARAGKEYTTQTHQRDKT | not soluble
MGSDKIHHHHHHLAKAELTQIPVSQMVIGLTVKLPLSWTNHPFFRSKVKLEQQVQIEMIKGLDVSFVYVIEGHDLLPHVSEPVEIEQPEEVVEQEIDYRPLAKKSMRISQQRFVKSVNDSRTVFGKIVSDPEGAYREAATLVEDLVDHLYESETPQLTIVGSGEIDVSVTQHGISVAVLSMMIAHSLVLSKKDVRDIALGSLFHDIGKLKVPDAIRRKKRGDLSDHEINFLKMHPNFGYDMLNRTGLFPEAMLDIVLHHHEFIDGSGFPNQLTEAKILLTTQVVSLANDYETLLNLHRTPQIALGILFKTHSGKHADNLIAVLVKILGIYPPGTIVRLTDDSIAKVMMTTADVKQPHVWSCNLSGGEPSFRFLINEDVQVQEVMKLDELTDGAVKTLQANNPISFYFNNFDH | not soluble
